From publication PMC8303780, “Mutational Analysis of Redβ Single Strand Annealing Protein: Roles of the 14 Lysine Residues in DNA Binding and Recombination In Vivo” come the findings set out here.

Data set [1] has as its target T1, Redβ K69A K69A (bacteriophage λ) (UniProt P03698).
T1 sequence: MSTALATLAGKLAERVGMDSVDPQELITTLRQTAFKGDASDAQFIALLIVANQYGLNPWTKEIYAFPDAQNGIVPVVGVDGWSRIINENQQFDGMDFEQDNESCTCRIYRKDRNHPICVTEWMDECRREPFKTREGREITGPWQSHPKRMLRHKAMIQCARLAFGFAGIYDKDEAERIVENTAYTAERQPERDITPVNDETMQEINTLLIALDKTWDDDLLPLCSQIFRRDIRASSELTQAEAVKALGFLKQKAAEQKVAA
As to the kind of experiment: fluorescence anisotropy. The note with it: Anisotropy: 50 mM Tris-HCl pH 7.5, 1 mM DTT, 0.1 mg/mL BSA, 10 nM FAM48, 23 °C (Kd per monomer), gel assay: 10 µM Redβ, 50 µM nt of each oligo, PBS, 37 °C. For orientation: Fluorescence polarisation rises when a labelled molecule tumbles more slowly, as on binding a larger partner.

Data set [2] addresses T2, Redβ K214A K214A (bacteriophage λ) (UniProt P03698).
T2 sequence: T1 sequence with A69K, K214A
As to the kind of experiment: fluorescence anisotropy. Conditions: Anisotropy: 50 mM Tris-HCl pH 7.5, 1 mM DTT, 0.1 mg/mL BSA, 10 nM FAM48, 23 °C (Kd per monomer), gel assay: 10 µM Redβ, 50 µM nt of each oligo, PBS, 37 °C.

Data set [3] addresses T3, Redβ K154A K154A (bacteriophage λ) (UniProt P03698).
T3 sequence: T1 sequence with A69K, K154A
As to the kind of experiment: fluorescence anisotropy. The note with it: Anisotropy: 50 mM Tris-HCl pH 7.5, 1 mM DTT, 0.1 mg/mL BSA, 10 nM FAM48, 23 °C (Kd per monomer), gel assay: 10 µM Redβ, 50 µM nt of each oligo, PBS, 37 °C.

For data set [4], the target named is T4, Redβ K258A K258A (bacteriophage λ) (UniProt P03698).
T4 sequence: T1 sequence with A69K, K258A
The data set is described as follows: fluorescence anisotropy. Conditions: Anisotropy: 50 mM Tris-HCl pH 7.5, 1 mM DTT, 0.1 mg/mL BSA, 10 nM FAM48, 23 °C (Kd per monomer), gel assay: 10 µM Redβ, 50 µM nt of each oligo, PBS, 37 °C.

The target in data set [5] is T5, Redβ K36A K36A (bacteriophage λ) (UniProt P03698).
T5 sequence: T1 sequence with K36A, A69K
The data set is described as follows: fluorescence anisotropy. Conditions: Anisotropy: 50 mM Tris-HCl pH 7.5, 1 mM DTT, 0.1 mg/mL BSA, 10 nM FAM48, 23 °C (Kd per monomer), gel assay: 10 µM Redβ, 50 µM nt of each oligo, PBS, 37 °C.

Data set [6] concerns the target T6, Redβ K253A K253A (bacteriophage λ) (UniProt P03698).
T6 sequence: T1 sequence with A69K, K253A
The data set is described as follows: fluorescence anisotropy. Conditions: Anisotropy: 50 mM Tris-HCl pH 7.5, 1 mM DTT, 0.1 mg/mL BSA, 10 nM FAM48, 23 °C (Kd per monomer), gel assay: 10 µM Redβ, 50 µM nt of each oligo, PBS, 37 °C.

The next data set has as its target T7, Redβ K148A (bacteriophage λ, UniProt P03698 1-261, K148A).
T7 sequence: T1 sequence with A69K, K148A
As to the kind of experiment: EMSA; strands added sequentially; Anisotropy: 50 mM Tris-HCl pH 7.5, 1 mM DTT, 0.1 mg/mL BSA, 10 nM FAM48, 23 °C (Kd per monomer); gel assay: 10 µM Redβ, 50 µM nt of each oligo, PBS, 37 °C, 1% agarose at 22 °C. The note with it: protein: recombinant; tags: 6xHis removed by thrombin; residual N-terminal GSH; label: 5'-Cy3 and 5'-Cy5; complementary 50-mers; annealed by protein.

The next data set deals with T8, Redβ K253A (bacteriophage λ, UniProt P03698 1-261, K253A).
T8 sequence: T1 sequence with A69K, K253A
Described as above. The note with it: protein: recombinant; tags: 6xHis removed by thrombin; residual N-terminal GSH; label: 5'-Cy3 and 5'-Cy5; complementary 50-mers; annealed by protein.

The next data set concerns the target T9, Redβ K61A (bacteriophage λ, UniProt P03698 1-261, K61A).
T9 sequence: T1 sequence with K61A, A69K
Described as above. Conditions: protein: recombinant; tags: 6xHis removed by thrombin; residual N-terminal GSH; label: 5'-Cy3 and 5'-Cy5; complementary 50-mers; annealed by protein.

Residue numbers refer to the chain shown, from its start.

Usually Kd stands for the free concentration of one partner at which half of the binding sites on the other are occupied at equilibrium, for simple one-to-one binding. A higher Kd goes with weaker binding. Turning to FAM48 48-mer ssDNA, the Kd came to 410 nM in data set [1]; 310 nM in [2]; 2100 nM in data set [3]; 110 nM in data set [4]; 530 nM in [5]; 210 nM in data set [6].

B1: annealed duplex of Cy3 and Cy5 50-mers, strands added sequentially (dsDNA)
DNA 1: GCGGATGGCTTAGAGCAGAATCGCCCTGCATAGCTCGATTTTTGCGGATG
DNA 2: CCATCCGCAAAAATCGAGCTATGCAGGGCGATTCTGCTCTAAGCCATCCG
B1: the binding result is “no binding” with Redβ K148A, “binds” in the data set with Redβ K253A and “no binding” in the data set with Redβ K61A.
